Numbering of substitutions follows the chain as printed. Numbers in names are those of the source. One block for each binder: values may come before it.
Target: T1, TNFR1 (Homo sapiens, UniProt P19438)
T1 chain: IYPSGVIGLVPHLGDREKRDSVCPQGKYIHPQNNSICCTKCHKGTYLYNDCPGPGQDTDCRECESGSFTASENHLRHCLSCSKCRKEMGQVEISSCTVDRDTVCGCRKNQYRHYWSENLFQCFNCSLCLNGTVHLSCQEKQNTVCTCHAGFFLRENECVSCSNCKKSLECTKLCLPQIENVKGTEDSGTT
Test: yeast display SC50

B3: F20H (designed binder)
chain: MTLQELLREEALRRAEAEAHRYALELLAEKFPEQKEYLLDLAEEIESQIRSLSGVDVEDVRKFLDKEWAWVKELLAEHPAELAEVEAARAARLAELRAEVEAKVAA
apparent Kd (screen): 0.49 nM

B4: I45D (designed binder)
chain: B3 chain with H20F, I45D
apparent Kd (screen): 1.54 nM

B5: E5Y (designed binder)
chain: B3 chain with E5Y, H20F
apparent Kd (screen): 0.718 nM

B6: L38A (designed binder)
chain: B3 chain with H20F, L38A
apparent Kd (screen): 12.5 nM

B7: L7F (designed binder)
chain: B3 chain with L7F, H20F
apparent Kd (screen): 7.07 nM

B8: L41E (designed binder)
chain: B3 chain with H20F, L41E
apparent Kd (screen): 2.25 nM

B13: A15I (designed binder)
chain: B3 chain with A15I, H20F
apparent Kd (screen): 0.593 nM

B14: E43F (designed binder)
chain: B3 chain with H20F, E43F
apparent Kd (screen): 0.653 nM

B18: R13C (designed binder)
chain: B3 chain with R13C, H20F
apparent Kd (screen): 0.539 nM

B20: I49E (designed binder)
chain: B3 chain with H20F, I49E
apparent Kd (screen): 2.48 nM

B22: A19K (designed binder)
chain: B3 chain with A19K, H20F
apparent Kd (screen): 10.4 nM

B24: L27Y (designed binder)
chain: B3 chain with H20F, L27Y
apparent Kd (screen): 0.539 nM

Continued, values first:

apparent Kd (screen): 24.4 nM
B1: L52E (designed binder)
chain: B3 chain with H20F, L52E

apparent Kd (screen): 0.539 nM
B2: A88K (designed binder)
chain: B3 chain with H20F, A88K

apparent Kd (screen): 2.05 nM
B9: A88P (designed binder)
chain: B3 chain with H20F, A88P

apparent Kd (screen): 5.31 nM
B10: L64R (designed binder)
chain: B3 chain with H20F, L64R

apparent Kd (screen): 0.539 nM
B11: E81K (designed binder)
chain: B3 chain with H20F, E81K

apparent Kd (screen): 0.653 nM
B12: E58C (designed binder)
chain: B3 chain with H20F, E58C

apparent Kd (screen): 0.593 nM
B15: L75V (designed binder)
chain: B3 chain with H20F, L75V

apparent Kd (screen): 0.539 nM
B16: A102K (designed binder)
chain: B3 chain with H20F, A102K

apparent Kd (screen): 0.869 nM
B17: L93R (designed binder)
chain: B3 chain with H20F, L93R

apparent Kd (screen): 0.539 nM
B19: A102N (designed binder)
chain: B3 chain with H20F, A102N

apparent Kd (screen): 0.869 nM
B21: V55F (designed binder)
chain: B3 chain with H20F, V55F

apparent Kd (screen): 0.539 nM
B23: A102V (designed binder)
chain: B3 chain with H20F, A102V
